52 sequences from the supplement of paper PMC10567573 can be followed below.

± gives the standard deviation.

This data set in a line: protein stability index of a GFP-peptide fusion (GPS, HEK-293T) (PSI 1-6); higher = more stable.
Setting [1] is: treatment: DMSO, c terminus: a fixed tail appended.
Where [2] appears, read: treatment: MLN4924 1 uM, 8 h, c terminus: a fixed tail appended.
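Note: 24-mer peptide tiles fused after GFP, lentivirally expressed, FACS-sorted into six equal bins by GFP/DsRed ratio, decoded by Illumina sequencing, PSI is the read-weighted mean bin number.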

Regarding QGGGNGQQQQAMSFAILRIIRLVR [KCNA4], the protein stability index amounted to 2.46 ± 0.28 under setting [1] and 2.67 ± 0.24 under setting [2].

In the case of QGWMNLLNMAKKSVDIVSSHWDLN [PLD5], the protein stability index under setting [1] worked out at 2.9 ± 0.45 and the protein stability index under setting [2] was determined as 3.46 ± 0.69.

Take QIEERHQEKKRKFLESTDSFNNEL [SMARCE1]: the protein stability index was found to be 4.82 ± 0.25 under setting [1] and 5.08 ± 0.37 under setting [2].

As to QIENLNIQVEDIRIRAILSTYRKR [LOXL2], the protein stability index is, setting by setting: under setting [1], 2.67 ± 0.28; under setting [2], 2.85 ± 0.37.

For QITSRVVSAATQLRHFFLVEDLVD [RTN2], the protein stability index came to 2.83 ± 0.24 under setting [1] and 3 ± 0.27 under setting [2].

The sequence QKNFGLYVQEKRDGLKRRQQLEEE [RAD54B] had a protein stability index under setting [1] of 4.7 ± 0.32 and a protein stability index under setting [2] of 4.66 ± 0.2.

As for QKQQAPRMDTPPPEERLEKQNEKL [CCDC89], the protein stability index by setting is: under setting [1], 5.46 ± 0.44; under setting [2], 5.62 ± 0.2.

Take QKVAVYRALQAALAESGGSPDVLQ [TRADD]: the protein stability index runs as follows: under setting [1], 2.31 ± 0.36; under setting [2], 2.4 ± 0.46.

The sequence QKVTCFYQPAPYFAAEARYPIYVI [TENT5D] came in with a protein stability index under setting [1] of 2.89 ± 0.4 and a protein stability index under setting [2] of 2.54 ± 0.49.

For the sequence QLISRMEYVHSKNLIYRDVKPENF [CSNK1G3], the protein stability index runs as follows: under setting [1], 2.37 ± 0.24; under setting [2], 2.42 ± 0.17.

With QLPGLLNFGEFKCSDSDKKCHLWT [CLCN6], the protein stability index runs as follows: under setting [1], 2.56 ± 0.43; under setting [2], 2.45 ± 0.36.

With QLQPTSIEKEVFPIMAKEGQLYAM [GMPPB], the protein stability index came out at 3.1 ± 0.27 under setting [1] and 2.96 ± 0.5 under setting [2].

For QLYCEKVQGLMKEYLLSFPAGKTP [VPS39], the protein stability index is, setting by setting: under setting [1], 2.27 ± 0.16; under setting [2], 2.41 ± 0.16.

As for QNGEEGTSTPEDKESGQEGVDSMA [SMARCE1], the protein stability index runs as follows: under setting [1], 5.44 ± 0.17; under setting [2], 5.65 ± 0.29.

With QPAFTGIKGKEGSALTEGAKEEGG [EPB41L3], the protein stability index was found to be 5.5 ± 0.071 under setting [1] and 5.65 ± 0.23 under setting [2].

With QPGLSFLNLGSGTGYLSSMVGLIL [PCMTD2], the protein stability index was determined as 2.12 ± 0.15 under setting [1] and 2.28 ± 0.27 under setting [2].

QPPPAPPKKIMPEAHSHYLYGHML [PPFIA4] came in with a protein stability index under setting [1] of 2.76 ± 0.26 and a protein stability index under setting [2] of 2.91 ± 0.22.

As to QQLYRHGKAYRFLFGFSAVSIMYL [JAGN1], the protein stability index is, setting by setting: under setting [1], 2.82 ± 0.2; under setting [2], 3.28 ± 0.93.

As for QQPPPPRRAGAACTLRQKLIFSPC [WEE1], the protein stability index came to 2.79 ± 0.46 under setting [1] and 2.94 ± 0.099 under setting [2].

Turning to QSIIAIIRAMGRLKIDFGDSARAD [GNAI1], the protein stability index by setting is: under setting [1], 2.44 ± 0.53; under setting [2], 2.29 ± 0.93.

As to QSLTQRLHALKLRSPDASPSRAPP [GNAS], the protein stability index under setting [1] stood at 4.06 ± 0.17 and the protein stability index under setting [2] came to 4.14 ± 0.22.

Regarding QSSADGSQPPKKKPKTTNIELQGV [RBBP5], the protein stability index is 5.09 ± 0.16 under setting [1] and 5.26 ± 0.36 under setting [2].

For QTASRSLVLSEDRKSVRYTRQKKN [TRIM15], the protein stability index worked out at 4.83 ± 0.27 under setting [1] and 4.8 ± 0.24 under setting [2].

Turning to QTGDPTSPIKLSPTSPVYRGSSSG [MTUS2], the protein stability index stood at 4.76 ± 0.26 under setting [1] and 4.82 ± 0.2 under setting [2].

Consider QTNKPALRAVRQRSEFTLMAKRIG [STX5], for which the protein stability index reads like this: under setting [1], 3.15 ± 0.29; under setting [2], 3.35 ± 0.25.

QTRRASALIDRPAPYFERSSSKRY [EPB41L3] displayed a protein stability index under setting [1] of 4.18 ± 0.24 and a protein stability index under setting [2] of 4.17 ± 0.3.

Regarding QVAPLTHVFQRQKSELSDGIAILV [TRIM55], the protein stability index reads like this: under setting [1], 2.26 ± 0.49; under setting [2], 2.26 ± 0.22.

The sequence QVITLDQVLDEVIPIHGKGNFPTM [TENT5D] came in with a protein stability index under setting [1] of 2.29 ± 0.24 and a protein stability index under setting [2] of 2.32 ± 0.25.

For QWLRPHVSTKEQILDLLVLEQFLS [ZSCAN9], the protein stability index turned out to be 2.07 ± 0.5 under setting [1] and 2.22 ± 0.44 under setting [2].

Turning to QYEKMAEKNRKDAEDWFFSKTEEL [KRT17], the protein stability index by setting is: under setting [1], 4.68 ± 0.18; under setting [2], 4.86 ± 0.18.

As to RAPQGCSGVDECARQEGLTFFGTE [PBXIP1], the protein stability index stood at 4.01 ± 0.35 under setting [1] and 4.3 ± 0.55 under setting [2].

With RAVQGPEETVTQDCLQLIADSETP [TNFSF13B], the protein stability index by setting is: under setting [1], 5.38 ± 0.2; under setting [2], 5.38 ± 0.15.

For RCGYRLVRRQRSADEQLHCAGKAK [ESR2], the protein stability index runs as follows: under setting [1], 3.69 ± 0.36; under setting [2], 3.91 ± 0.26.

For the sequence RDEESFFGERRIPRGRRISVICRS [ALKBH7], the protein stability index reads like this: under setting [1], 3.24 ± 0.24; under setting [2], 3.65 ± 0.24.

Consider RDEHRARAMKIPFTNDKIINLPVE [NFE2L1], for which the protein stability index is, setting by setting: under setting [1], 4.12 ± 0.36; under setting [2], 3.95 ± 0.14.

In turn, RDNAELENLIRERSQQQEPLLCPS [KRT33B] displayed a protein stability index under setting [1] of 4.98 ± 0.23 and a protein stability index under setting [2] of 4.87 ± 0.21.

With REAKEGDCGDILRLIRELAEFEKL [SAT2], the protein stability index came to 2.95 ± 0.3 under setting [1] and 3.09 ± 0.47 under setting [2].

As for REAKMICFKSVAKTPYDTSRRQEK [ELOA2], the protein stability index runs as follows: under setting [1], 3.97 ± 0.22; under setting [2], 4.11 ± 0.58.

With REPYYARPEPELETFSPPLPAGPG [CPXM2], the protein stability index runs as follows: under setting [1], 4.7 ± 0.26; under setting [2], 4.47 ± 0.38.

With RETLKRKVSGNRCASPVTGPGSKR [ESR2], the protein stability index was 3.92 ± 0.32 under setting [1] and 4.1 ± 0.2 under setting [2].

In turn, RETNKSRGFAFVTFESPADAKDAA [RBMX] displayed a protein stability index under setting [1] of 4.34 ± 0.32 and a protein stability index under setting [2] of 4.39 ± 0.38.

For RGAPRGGGRGGSRSDRGGGRSRY [RBMX], the protein stability index runs as follows: (treatment: DMSO, c terminus: native) 5.34 ± 0.14; (treatment: MLN4924 1 uM, 8 h, c terminus: native) 5.33 ± 0.11.

On to RGAQGVILVYDIANRWSFEGMDRW [RAB40A], for which the protein stability index runs as follows: under setting [1], 2.57 ± 0.37; under setting [2], 2.28 ± 0.28.

On to RGDERILSILRHQNLLKELQDLAL [CHGA], for which the protein stability index runs as follows: under setting [1], 2.36 ± 0.4; under setting [2], 2.41 ± 0.29.

Consider RGIIMTFGSGSNGCLGHGSLTDIS [NEK8], for which the protein stability index worked out at 2.45 ± 0.22 under setting [1] and 2.4 ± 0.31 under setting [2].

On to RGLGLGGRRLKSPQAPDPEEEENR [FANCE], for which the protein stability index turned out to be 5.11 ± 0.23 under setting [1] and 5.58 ± 0.38 under setting [2].

For the sequence RGNVVLRAQMIRNEYRKLHPVLHK [TRIM43], the protein stability index by setting is: under setting [1], 2.25 ± 0.38; under setting [2], 2.77 ± 0.56.

RHTSPVFSPANPESSMEDCLAHLG [BCL2L13]: the protein stability index stood at 4.24 ± 0.069 under setting [1] and 4.31 ± 0.29 under setting [2].

With RILGLDQKKDCVPLMKPHRPWADT [HESX1], the protein stability index is 2.34 ± 0.17 under setting [1] and 2.36 ± 0.24 under setting [2].

For the sequence RKDKDVARLQDFQELELVLMISEN [ANKRD40], the protein stability index turned out to be 2.1 ± 0.47 under setting [1] and 2.13 ± 0.56 under setting [2].

For the sequence RKPSVPWQRQMDQPQDRNQALGTH [RASAL3], the protein stability index came to 4.08 ± 0.16 under setting [1] and 4.21 ± 0.19 under setting [2].

As to RLCTWLLALSPDLSLSNATVLTRS [FANCE], the protein stability index is, setting by setting: under setting [1], 2.92 ± 0.47; under setting [2], 3.02 ± 1.
